Laboratory results: US12180485B2, “Repressible control of gene expression” (TRUSTEES OF BOSTON UNIVERSITY, priority 2020, dated 2024)

B1: SEQ ID NO: 770: inducible system polypeptide, probably Table 20 (GID-GAI) (protein)
chain: MKRDHHHHHHQDKKTMMMNEEDDGNGMDELLAVLGYKVRSSEMADVAQKLEQLEVMMSNVQEDDLSQLATETVHYNPAELYTWLDSMLTDLNSGGSGSGSSGGSGTDNEYISTLNYLYDRITNELTNSFSKNSAANVNYIAETLGINPAEFAEQYFRFSIMKEQKNLGFNITKLREVMLDRKDMSEIRKNHKVFDSIRTKVYTMMDFVIYRYYIEEDAKVAAANKSLPDNEKSLSEKDIFVINLRGSFNDDQKDALYYDEANRIWRKLENIMHNIKEFRGNKTREYKKKDAPRLPRILPAGRDVSAFSKLMYALTMFLDGKEINDLLTTLINKFDNIQSFLKVMPLIGVNAKFVEEYAFFKDSAKIADELRLIKSFARMGEPIADARRAMYIDAIRILGTNLSYDELKALADTFSLDENGNKLKKGKHGMRNFIINNVISNKRFHYLIRYGDPAHLHEIAKNEAVVKFVLGRIADIQKKQGQNGKNQIDRYYETCIGKDKGKSVSEKVDALTKIITGMNYDQFDKKRSVIEDTGRENAEREKFKKIISLYLTVIYHILKNIVNINARYVIGFHCVERDAQLYKEKGYDINLKKLEEKGFSSVTKLCAGIDETAPDKRKDVEKEMAERAKESIDSLESANPKLYANYIKYSDEKKAEEFTRQINREKAKTALNAYLRNTKWNVIIREDLLRIDNKTCTLFRNKAVHLEVARYVHAYINDIAEVNSYFQLYHYIMQRIIMNERYEKSSGKVSEYFDAVNDEKKYNDRLLKLLCVPFGYCIPRFKNLSIEALFDRNEAAKFDKEKKKVSGNSGSGPKKKRKV
B2: SEQ ID NO: 796: inducible system polypeptide, probably Table 20 (GID-GAI) (protein)
chain: MAPKKKRKVGIHGVPAAKRDHHHHHHQDKKTMMMNEEDDGNGMDELLAVLGYKVRSSEMADVAQKLEQLEVMMSNVQEDDLSQLATETVHYNPAELYTWLDSMLTDLNSGGSGSGSSGGSGTSYDELKALADTFSLDENGNKLKKGKHGMRNFIINNVISNKRFHYLIRYGDPAHLHEIAKNEAVVKFVLGRIADIQKKQGQNGKNQIDRYYETCIGKDKGKSVSEKVDALTKIITGMNYDQFDKKRSVIEDTGRENAEREKFKKIISLYLTVIYHILKNIVNINARYVIGFHCVERDAQLYKEKGYDINLKKLEEKGFSSVTKLCAGIDETAPDKRKDVEKEMAERAKESIDSLESANPKLYANYIKYSDEKKAEEFTRQINREKAKTALNAYLRNTKWNVIIREDLLRIDNKTCTLFRNKAVHLEVARYVHAYINDIAEVNSYFQLYHYIMQRIIMNERYEKSSGKVSEYFDAVNDEKKYNDRLLKLLCVPFGYCIPRFKNLSIEALFDRNEAAKFDKEKKKVSGNSGSGPKKKRKV
B3: SEQ ID NO: 392: PV1-Cas13 N507-L1-PYL-NLS-BGHpA (protein)
chain: MIEKKKSFAKGMGVKSTLVSGSKVYMTTFAEGSDARLEKIVEGDSIRSVNEGEAFSAEMADKNAGYKIGNAKFSHPKGYAVVANNPLYTGPVQQDMLGLKETLEKRYFGESADGNDNICIQVIHNILDIEKILAEYITNAAYAVNNISGLDKDIIGFGKFSTVYTYDEFKDPEHHRAAFNNNDKLINAIKAQYDEFDNFLDNPRLGYFGQAFFSKEGRNYIINYGNECYDILALLSGLRHWVVHNNEEESRISRTWLYNLDKNLDNEYISTLNYLYDRITNELTNSFSKNSAANVNYIAETLGINPAEFAEQYFRFSIMKEQKNLGFNITKLREVMLDRKDMSEIRKNHKVFDSIRTKVYTMMDFVIYRYYIEEDAKVAAANKSLPDNEKSLSEKDIFVINLRGSFNDDQKDALYYDEANRIWRKLENIMHNIKEFRGNKTREYKKKDAPRLPRILPAGRDVSAFSKLMYALTMFLDGKEINDLLTTLINKFDNIQSFLKVMPLIGVNSGGSGSGSSGGSGTAPTQDEFTQLSQSIAEFHTYQLGNGRCSSLLAQRIHAPPETVWSVVRRFDRPQIYKHFIKSCNVSEDFEMRVGCTRDVNVISGLPANTSRERLDLLDDDRRVTGFSITGGEHRLRNYKSVTTVHRFEKEEEEERIWTVVLESYVVDVPEGNSEEDTRLFADTVIRLNLQKLASITEAMNYPYDVPDYAPKKKRKV
B4: SEQ ID NO: 793: inducible system polypeptide, probably Table 20 (GID-GAI) (protein)
chain: MLDLASLILIEKKKSFAKGMGVKSTLVSGSKVYMTTFAEGSDARLEKIVEGDSIRSVNEGEAFSAEMADKNAGYKIGNAKFSHPKGYAVVANNPLYTSGGSGSGSSGGSGTMAASDEVNLIESRTVVPLNTWVLISNFKVAYNILRRPDGTFNRHLAEYLDRKVTANANPVDGVFSFDVLIDRRINLLSRVYRPAYADQEQPPSILDLEKPVDGDIVPVILFFHGGSFAHSSANSAIYDTLCRRLVGLCKCVVVSVNYRRAPENPYPCAYDDGWIALNWVNSRSWLKSKKDSKVHIFLAGDSSGGNIAHNVALRAGESGIDVLGNILLNPMFGGNERTESEKSLDGKYFVTVRDRDWYWKAFLPEGEDREHPACNPFSPRGKSLEGVSFPKSLVVVAGLDLIRDWQLAYAEGLKKAGQEVKLMHLEKATVGFYLLPNNNHFHNVMDEISAFVNAECLDLASLIL
B5: SEQ ID NO: 769: inducible system polypeptide, probably Table 20 (GID-GAI) (protein)
chain: MIEKKKSFAKGMGVKSTLVSGSKVYMTTFAEGSDARLEKIVEGDSIRSVNEGEAFSAEMADKNAGYKIGNAKFSHPKGYAVVANNPLYTGPVQQDMLGLKETLEKRYFGESADGNDNICIQVIHNILDIEKILAEYITNAAYAVNNISGLDKDIIGFGKFSTVYTYDEFKDPEHHRAAFNNNDKLINAIKAQYDEFDNFLDNPRLGYFGQAFFSKEGRNYIINYGNECYDILALLSGLRHWVVHNNEEESRISRTWLYNLDKNLSGGSGSGSSGGSGTMAASDEVNLIESRTVVPLNTWVLISNFKVAYNILRRPDGTFNRHLAEYLDRKVTANANPVDGVFSFDVLIDRRINLLSRVYRPAYADQEQPPSILDLEKPVDGDIVPVILFFHGGSFAHSSANSAIYDTLCRRLVGLCKCVVVSVNYRRAPENPYPCAYDDGWIALNWVNSRSWLKSKKDSKVHIFLAGDSSGGNIAHNVALRAGESGIDVLGNILLNPMFGGNERTESEKSLDGKYFVTVRDRDWYWKAFLPEGEDREHPACNPFSPRGKSLEGVSFPKSLVVVAGLDLIRDWQLAYAEGLKKAGQEVKLMHLEKATVGFYLLPNNNHFHNVMDEISAFVNAECPKKKRKV
B6: SEQ ID NO: 792: inducible system polypeptide, probably Table 20 (GID-GAI) (protein)
chain: MAPKKKRKVGIHGVPAAKRDHHHHHHQDKKTMMMNEEDDGNGMDELLAVLGYKVRSSEMADVAQKLEQLEVMMSNVQEDDLSQLATETVHYNPAELYTWLDSMLTDLNSGGSGSGSSGGSGTGPVQQDMLGLKETLEKRYFGESADGNDNICIQVIHNILDIEKILAEYITNAAYAVNNISGLDKDIIGFGKFSTVYTYDEFKDPEHHRAAFNNNDKLINAIKAQYDEFDNFLDNPRLGYFGQAFFSKEGRNYIINYGNECYDILALLSGLRHWVVHNNEEESRISRTWLYNLDKNLDNEYISTLNYLYDRITNELTNSFSKNSAANVNYIAETLGINPAEFAEQYFRFSIMKEQKNLGFNITKLREVMLDRKDMSEIRKNHKVFDSIRTKVYTMMDFVIYRYYIEEDAKVAAANKSLPDNEKSLSEKDIFVINLRGSFNDDQKDALYYDEANRIWRKLENIMHNIKEFRGNKTREYKKKDAPRLPRILPAGRDVSAFSKLMYALTMFLDGKEINDLLTTLINKFDNIQSFLKVMPLIGVNAKFVEEYAFFKDSAKIADELRLIKSFARMGEPIADARRAMYIDAIRILGTNLSYDELKALADTFSLDENGNKLKKGKHGMRNFIINNVISNKRFHYLIRYGDPAHLHEIAKNEAVVKFVLGRIADIQKKQGQNGKNQIDRYYETCIGKDKGKSVSEKVDALTKIITGMNYDQFDKKRSVIEDTGRENAEREKFKKIISLYLTVIYHILKNIVNINARYVIGFHCVERDAQLYKEKGYDINLKKLEEKGFSSVTKLCAGIDETAPDKRKDVEKEMAERAKESIDSLESANPKLYANYIKYSDEKKAEEFTRQINREKAKTALNAYLRNTKWNVIIREDLLRIDNKTCTLFRNKAVHLEVARYVHAYINDIAEVNSYFQLYHYIMQRIIMNERYEKSSGKVSEYFDAVNDEKKYNDRLLKLLCVPFGYCIPRFKNLSIEALFDRNEAAKFDKEKKKVSGNSGSGPKKKRKV

System: mCherry expression in HEK293 FT cells
Experiment: Inducible split RfxCas13d (GIB, RAP, ABA, Dano, GRZ CID domains; NES/NLS variants) mCherry knockdown, leakiness and inducibility
Assay type: cell-based
Details: inducible polypeptide systems of Tables 18-22
From the text: FIG. 6A-6C is a series of schematics and graphs showing that split RfxCas13d's reconstituted and functioned to knockdown mCherry expression in HEK293 FT cells FIG. 6A is a schematic showing split sites selected throughout RfxCas13d sequence. FIG. 6B is a bar graph showing mCherry expression under 4 conditions for gibberellin-inducible, rapalog-inducible, and abscisic acid-inducible inducible split Cas13d designs. In FIG. 6B and FIG. 6C, the left-right order of the bars for each split site is the same as the left-right order of the legend for each bar graph.
FIG. 7A-7E is a series of schematics and graphs showing a functional and inducible split Cas13d design. FIG. 7A is a bar graph showing additional split sites selected in RfxCas13d and tested with GIB CID domains. […] In FIG. 7A and FIG. 7C, the left-right order of the bars for each split site is the same as the left-right order of the legend. FIG. 7B is a schematic showing the design to compartmentalize splits. Compartmentalizing moieties facilitates the reduction of leakiness. […] FIG. 7D is a schematic showing the experiment flow for testing reversibility of the inducible split Cas13d's.
FIG. 8A-8B is a series of schematics and graphs showing that split RfxCas13d's reconstituted upon drug-induced dimerization and knocked down mCherry expression in HEK293 FT cells. FIG. 8A is a bar graph showing quantification of system performance. The left-right order of the bars for each split site is the same as the top-down order of the legend. […] System performance in leakiness score (left axis) and induced activity (right axis) by GIB, RAP, ABA, and Dano-inducible split Cas13d designs.
FIG. 10A-10B is a series of schematics and graphs showing performance optimization through separating split Cas13d moieties in different cellular compartments. […] The left-right order of the bars for each bar graph is the same as the top-down order of the legend.
FIG. 11 is a series of schematics and graphs showing the testing of reversed orientation (dark grey dots) of CID domains with respect to split Cas13d pieces against original orientations (light grey dots) designed for GIB, ABA, Dano, and GRZ inducible systems.

| Molecule | performance in the tested conditions |
| --- | --- |
| B1 | highest performance |
| B2 | highest performance |
| B3 | highest performance |
| B4 | highest performance |
| B5 | highest performance |
| B6 | highest performance |
